The record followed here is patent US20190374506.

This data set concerns the target Flag-PTEN.

B1: Neural Precursor Cell Expressed Developmentally Down-Regulated Protein 4 polypeptide (NEDD4-1) (protein)
chain: MATCAVEVFGLLEDEENSRIVRVRVIAGIGLAKKDILGASDPYVRVTLYDPMNGVLTSVQTKTIKKSLNPKWNEEILFRVHPQQHRLLFEVFDENRLTRDDFLGQVDVPLYPLPTENPRLERPYTFKDFVLHPRSHKSRVKGYLRLKMTYLPKTSGSEDDNAEQAEELEPGWVVLDQPDAACHLQQQQEPSPLPPGWEERQDILGRTYYVNHESRRTQWKRPTPQDNLTDAENGNIQLQAQRAFTTRRQISEETESVDNRESSENWEIIREDEATMYSNQAFPSPPPSSNLDVPTHLAEELNARLTIFGNSAVSQPASSSNHSSRRGSLQAYTFEEQPTLPVLLPTSSGLPPGWEEKQDERGRSYYVDHNSRTTTWTKPTVQATVETSQLTSSQSSAGPQSQASTSDSGQQVTQPSEIEQGFLPKGWEVRHAPNGRPFFIDHNTKTTTWEDPRLKIPAHLRGKTSLDTSNDLGPLPPGWEERTHTDGRIFYINHNIKRTQWEDPRLENVAITGPAVPYSRDYKRKYEFFRRKLKKQNDIPNKFEMKLRRATVLEDSYRRIMGVKRADFLKARLWIEFDGEKGLDYGGVAREWFFLISKEMFNPYYGLFEYSATDNYTLQINPNSGLCNEDHLSYFKFIGRVAGMAVYHGKLLDGFFIRPFYKMMLHKPITLHDMESVDSEYYNSLRWILENDPTELDLRFIIDEELFGQTHQHELKNGGSEIVVTNKNKKEYIYLVIQWRFVNRIQKQMAAFKEGFFELIPQDLIKIFDENELELLMCGLGDVDVNDWREHTKYKNGYSANHQVIQWFWKAVLMMDSEKRIRLLQFVTGTSRVPMNGFAELYGSNGPQSFTVEQWGTPEKLPRAHTCFNRLDLPPYESFEELWDKLQMAIENTQGFDGVD
As to B1, the “in vitro ubiquitination of Flag-PTEN (E1, E2, ubiquitin; western blot with anti-PTEN antibody), NEDD4-1 alone” value was “incubation of purified NEDD4-1 alone could not efficiently promote PTEN K27-linked poly-ubiquitination”; the “in vitro ubiquitination of Flag-PTEN, WWP1 and NEDD4-1 both present” value was “in the presence of both WWP1 and NEDD4-1, PTEN was robustly K27-linked poly-ubiquitinated”.
